Reference: patent US20050037431A1

Each substance was assayed against Met receptor on cells (A549, MDA-MB-435, BxPC3) (UniProt P08581) (assay: cell-based or functional assay).
UniProt P08581, sequence (P08581 25-1390 limits assumed): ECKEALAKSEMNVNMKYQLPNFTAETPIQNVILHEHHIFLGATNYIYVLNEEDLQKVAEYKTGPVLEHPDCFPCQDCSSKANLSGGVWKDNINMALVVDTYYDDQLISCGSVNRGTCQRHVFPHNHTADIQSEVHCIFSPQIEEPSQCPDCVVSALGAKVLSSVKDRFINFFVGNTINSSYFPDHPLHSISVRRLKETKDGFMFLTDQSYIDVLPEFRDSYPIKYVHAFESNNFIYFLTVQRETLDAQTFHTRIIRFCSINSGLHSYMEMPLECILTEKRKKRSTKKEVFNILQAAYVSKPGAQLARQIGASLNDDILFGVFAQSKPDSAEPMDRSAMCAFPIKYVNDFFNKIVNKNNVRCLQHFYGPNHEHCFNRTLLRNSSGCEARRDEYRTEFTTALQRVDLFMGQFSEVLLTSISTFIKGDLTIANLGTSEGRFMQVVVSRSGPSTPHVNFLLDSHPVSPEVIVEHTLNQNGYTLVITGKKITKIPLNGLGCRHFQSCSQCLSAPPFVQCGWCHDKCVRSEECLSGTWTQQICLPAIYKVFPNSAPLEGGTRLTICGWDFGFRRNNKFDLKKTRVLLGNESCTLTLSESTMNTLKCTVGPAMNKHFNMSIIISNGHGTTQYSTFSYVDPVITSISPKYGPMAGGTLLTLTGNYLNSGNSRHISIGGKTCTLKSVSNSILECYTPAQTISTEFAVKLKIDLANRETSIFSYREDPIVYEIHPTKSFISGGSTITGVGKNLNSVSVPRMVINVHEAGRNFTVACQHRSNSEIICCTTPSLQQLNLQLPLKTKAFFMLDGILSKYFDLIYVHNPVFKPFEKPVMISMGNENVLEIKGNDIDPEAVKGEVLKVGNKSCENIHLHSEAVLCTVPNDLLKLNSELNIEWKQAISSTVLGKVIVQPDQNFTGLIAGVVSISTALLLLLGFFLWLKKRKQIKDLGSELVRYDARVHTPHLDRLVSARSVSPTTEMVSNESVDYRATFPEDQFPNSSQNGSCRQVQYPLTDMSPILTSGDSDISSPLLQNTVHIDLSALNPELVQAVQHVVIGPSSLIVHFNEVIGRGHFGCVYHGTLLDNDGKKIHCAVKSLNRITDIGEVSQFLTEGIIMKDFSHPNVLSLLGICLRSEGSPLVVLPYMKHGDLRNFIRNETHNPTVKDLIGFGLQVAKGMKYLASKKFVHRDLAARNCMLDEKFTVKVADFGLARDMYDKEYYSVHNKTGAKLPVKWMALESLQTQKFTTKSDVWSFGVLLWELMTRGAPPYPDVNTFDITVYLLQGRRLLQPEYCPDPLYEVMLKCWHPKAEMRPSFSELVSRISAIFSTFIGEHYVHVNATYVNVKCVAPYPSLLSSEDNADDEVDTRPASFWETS

Migration of MDA-MB435 cells (transwell, 1 nM), percent of wildtype HGF (% of wildtype activity), 60 to 80:
HGF G621A (two-chain full length HGF mutant) (from UniProt P14210 32-494; P14210 495-728) (ligand)
HGF I699A (two-chain full length HGF mutant) (from UniProt P14210 32-494; P14210 495-728) (ligand)
HGF N701A (two-chain full length HGF mutant) (from UniProt P14210 32-494; P14210 495-728) (ligand)
HGF P537A (two-chain full length HGF mutant) (from UniProt P14210 32-494; P14210 495-728) (ligand)
HGF R514A (two-chain full length HGF mutant) (from UniProt P14210 32-494; P14210 495-728) (ligand)
HGF T620A (two-chain full length HGF mutant) (from UniProt P14210 32-494; P14210 495-728) (ligand)
HGF Y619A (two-chain full length HGF mutant) (from UniProt P14210 32-494; P14210 495-728) (ligand)
